This note sets out measurements from US20170296650A1 (Novartis, published 2017).

In assay [1] the target is T1, hCMV UL128 + UL130 + UL131A (HEK293T co-transfectant) (hCMV, UniProt P16837 1-171; P16772 1-214). The experiment in a line: cell-based or functional assay.
The target of assay [2] is T2, hCMV gH + gL + UL128 + UL130 + UL131A (5-member complex; HEK293T co-transfectant) (hCMV, UniProt P12824 24-743; P16832 31-278; P16837 1-171; P16772 1-214).
T2 construct: whole, on cells; in the functional rows it stands for the complex on virions or transduced cells of the strain or isolate named in the readout; also called gH/gL/UL128-131A complex; pentameric complex
The experiment in a line: cell competition; competitor 4I22-biotin.

Assay [3] concerns the target T1, hCMV UL128 + UL130 + UL131A (HEK293T …). The experiment in a line: cell-based or functional assay. This is another data set of the same source.
The target in assay [4] is T2, hCMV gH + gL + UL128 + UL130 + UL131A …. The experiment in a line: cell competition; competitor 8C15-biotin.
Assay [5] shares this target. Briefly: cell competition; competitor 8J16-biotin.
Assay [6] has the same target. The experiment in a line: cell competition; competitor 9I6-biotin.
Assay [7] shares this target. The experiment in a line: cell competition; competitor 2C12-biotin.
Assay [8] shares this target. The experiment in a line: cell competition; competitor 6G4-biotin.
The target is the same in assay [9]. The experiment in a line: cell competition; competitor 8I21-biotin.
The target is the same in assay [10]. Briefly: cell competition; competitor 1F11-biotin.
For assay [11] the target is unchanged. Briefly: cell competition; competitor 2F4-biotin.
For assay [12] the target is unchanged. Briefly: cell competition; competitor 4N10-biotin.
For assay [13] the target is unchanged. The experiment in a line: cell competition; competitor 5A2-biotin.
Assay [14] shares this target. The experiment in a line: cell competition; competitor 10F7-biotin.
Assay [15] has the same target. Briefly: cell competition; competitor 15D8-biotin.

T1 sequence (P16837 whole entry, chain 1 of 2): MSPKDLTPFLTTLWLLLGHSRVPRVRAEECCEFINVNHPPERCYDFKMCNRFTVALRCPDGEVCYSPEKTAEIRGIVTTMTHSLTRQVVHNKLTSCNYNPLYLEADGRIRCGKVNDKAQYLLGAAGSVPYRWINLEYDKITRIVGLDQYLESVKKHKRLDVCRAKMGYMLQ
T1 sequence (P16772 whole entry, chain 2 of 2): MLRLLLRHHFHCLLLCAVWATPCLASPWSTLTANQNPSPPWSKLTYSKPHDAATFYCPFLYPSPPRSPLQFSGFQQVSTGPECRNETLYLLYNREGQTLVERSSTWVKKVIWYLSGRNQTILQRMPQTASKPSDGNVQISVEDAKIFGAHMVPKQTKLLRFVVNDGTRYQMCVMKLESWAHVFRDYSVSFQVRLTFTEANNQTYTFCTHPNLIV

B1: 8C15 (antibody, V domains shown)
VH: QVQLQESGPGLVKPSETLSLTCTVSGGSIRSYYWSWIRQPPGKGLEWIGHIYYSGNTNYSPSLQSRVTISLDTPKNQFSLRLSSVTAADTAVYYCARHDVIVVRGVFDVWGQGTVVTVSS
VL: QSALTQPASVSGSPGQSITISCTGTSSDIGTYNLVSWYQQHPGKAPKVLIYDGSKRPSGVSSRFSASKSGNTASLTISGLQAEDETDYYCCSYAGTSDFFVVFGGGTKLTVL
notes: human IgG; also called 8C15-biotin
B1: the “90% neutralization VR1814, ARPE” value in assay [1] came to 0.0025 µg/mL. Further, the “90% neutralization VR1814, MRC-9” value in [1] is more than 10 µg/mL. Besides, the “Inhibition of binding (%)” value in assay [2] was determined as 0%; in assay [4], 100%; in [5] it was 100%; in assay [6] it was 100%; in [7], 100%; in assay [8], 100%. In addition, the “Inhibition of binding (%)” value in assay [9] was 0%. Moreover, in assay [3], the “50% neutralization VR1814, ARPE” value was less than 0.001 µg/mL. In assay [3], the “50% neutralization VR1814, MRC-9” value was more than 2 µg/mL.

B2: 8J16 (antibody, V domains shown)
VH: QVQLQESGPGLVKPSETLSLTCSVSGGFTSSYYWSWIRQAPGKGLEWIGYVYYGESTDYNPSLKSRATISIDTSKNQFSLKLSSVTAADTAVYYCAREVDKRGFDYWGQGALVTVSS
VL: EIVLTQSPGTLSLSPGERATLSCRASQSVSGGYLAWYQQEPGQAPRLVIYGASSRATGIPDRFSASGSGTDFTLTITRLEPEDFAVYYCQQYGRTPLTFGGGTKVEIK
notes: human IgG; also called 8J16-biotin
Take B2: the “90% neutralization VR1814, ARPE” value in [1] is 0.0008 µg/mL. Further, the “90% neutralization VR1814, MRC-9” value in assay [1] is more than 10 µg/mL. Moreover, the “Inhibition of binding (%)” value in assay [10] turned out to be 0%; in assay [2], 0%; in assay [4], 100%; in assay [11], 0%; in assay [5] it was 100%; in assay [6] it was 70%. Further, the “Inhibition of binding (%)” value amounted to 100% in assay [7], 100% in [8] and 0% in assay [9]. Further, the “50% neutralization VR1814, ARPE” value in assay [3] is less than 0.001 µg/mL. In addition, in assay [3], the “50% neutralization VR1814, MRC-9” value is more than 2 µg/mL.

B3: 2C12 (antibody, V domains shown)
VH: QITLRESGPTLVKPTQTLTLTCTFSGFSLNTNGVGVGWIRQPPGKALEWLALIYWNGNEGYSPSLKSRLTITKDTSKNQVVLTMTNMDPVDTATYYCVHWPQGLTTVTRLAFDIWGQGTMVTVSS
VL: QSALTQPRSVSGSPGQSVTISCTGTTSDVGRYNFVSWYQQHPGKAPKLLMYDVSQRPSGVPSRFSGSKSGNTASLTISGLQAEDEAVFYCCSYAGGNFFSYVFGTGTKVTVL
notes: human IgG; also called 2C12-biotin
For B3, the “Inhibition of binding (%)” value in assay [12] is 0%; in assay [10], 0%; in assay [2] it was 0%; in assay [13], 0%; in [4], 100%; in assay [14], 0%. Also, the “Inhibition of binding (%)” value in [11] turned out to be 0%; in [5], 100%; in assay [6], 100%; in assay [7], 100%; in assay [15] it was 0%; in [8] it was 100%. In addition, the “Inhibition of binding (%)” value in assay [9] was 0%. Moreover, the “90% neutralization VR1814, ARPE” value in assay [1] worked out at 0.006 µg/mL. Also, the “90% neutralization VR1814, MRC-9” value in [1] is more than 10 µg/mL. In assay [3], the “50% neutralization VR1814, ARPE” value was less than 0.01 µg/mL. For the same molecule, the “50% neutralization VR1814, MRC-9” value in assay [3] is not above 2 µg/mL.

B4: 7B13 (antibody, V domains shown)
VH: QVQLVESGGGVVQPGGSLRLSCAASGFSFSNYGMHWVRQAPGKGLEWVALIPSDGNYQYYTDSVKGRFTVSRDNSRNTLYLQMKSLRAEDTARYHCAHLGGGLFDFWGQGTLVTVSS
VL: QSALNQPRSVSGSPGQSVSISCTGSSSDVGGYEFVSWYQHHPGKAPKLIIYDVDKRPSGVPDRFSGSRSGDTASLTISGLQAEDEADYYCYSSADTWVFGGGTKLTVL
notes: human IgG
Regarding B4, the “90% neutralization VR1814, ARPE” value in assay [1] was 0.003 µg/mL. Also, in assay [1], the “90% neutralization VR1814, MRC-9” value is more than 10 µg/mL. For the same molecule, the “50% neutralization VR1814, ARPE” value in assay [3] is less than 0.001 µg/mL. Moreover, in [3], the “50% neutralization VR1814, MRC-9” value is more than 2 µg/mL. Further, the “Inhibition of binding (%)” value is 100% in [4]; 100% in [5]; 100% in assay [6]; 100% in assay [7]; 100% in assay [8]; 0% in assay [9].

B5: 7I13 (antibody, V domains shown)
VH: QVQLVESGGGVVQPGRSLRLSCAASGFTFSNYGMHWVRQGPGKGLEWVAVISYDASSKYYTDSVQGRFTISRDNSKNTLFLQMNSLRGEDTAVYYCAKALRYLDWFLSDPFDYWGQGTLVTVSS
VL: EIVLTQSPGTLSLSPGERATLSCRASQSVSSDFLAWYQQKPGQAPRLLIYGASSRATGIPDRFSGSGSGTDFTLTISRLEPEDFAVYYCQQYAASPPFGQGTRLEIK
notes: human IgG; also called 7113
With B5, in assay [1], the “90% neutralization VR1814, ARPE” value amounted to 0.008 µg/mL. Besides, the “90% neutralization VR1814, MRC-9” value in assay [1] was more than 10 µg/mL. The “Inhibition of binding (%)” value in [10], in assay [4], in assay [5], in assay [6], in [7] and in assay [8] was 0% in each case. The “Inhibition of binding (%)” value in [9] came to 0%. In addition, in assay [3], the “50% neutralization VR1814, ARPE” value is less than 0.01 µg/mL. The “50% neutralization VR1814, MRC-9” value in [3] is more than 2 µg/mL.

B6: 9I6 (antibody, V domains shown)
VH: EVQLVQSGAEVKKPGESLKISCRESGDTFPAYWIAWVRQMPGKGLEWMGIIYPIDSETTYSPSFQGQVTISADKSINTAYLQWSSLKASDSAIYYCARGTSTGLREAFHIWGQGTMVTVSS
VL: DVVMTQSPLSLAVTLGQPAYISCRSSQSLGYSDGNTYLNWFQQRPGQSPRRLIYEVSNRDSGVPDRFSGSGSGTDFTLKISRVEAEDVGTYYCMQGTHWPPMCSFGQGTKLEIK
notes: human IgG; also called 9I6-biotin; 916
B6: the “90% neutralization VR1814, ARPE” value in [1] worked out at 0.0007 µg/mL. In [1], the “90% neutralization VR1814, MRC-9” value is more than 10 µg/mL. The “Inhibition of binding (%)” value in [10] stood at 0%; in assay [2], 0%; in assay [4], 100%; in [11], 0%; in assay [5] it was 100%; in assay [6], 100%. For the same molecule, the “Inhibition of binding (%)” value was 100% in [7], 100% in [8] and 0% in assay [9]. The “50% neutralization VR1814, ARPE” value in [3] is less than 0.001 µg/mL. Besides, in assay [3], the “50% neutralization VR1814, MRC-9” value was more than 2 µg/mL.
